Where a SMILES comes first, the peptide text is derived from it. [ ]: non-standard residue; d: D form. dPhe(4-Cl) = N[C@H](Cc1ccc(Cl)cc1)C(=O)O; d2Nal = N[C@H](Cc1ccc2ccccc2c1)C(=O)O; dCit = NC(=O)NCCC[C@@H](N)C(=O)O; d3Pal = N[C@H](Cc1cccnc1)C(=O)O

The subject of this assay is C57BL6/J (B6) dams and their female offspring. Put plainly: Prenatal treatment of pregnant dams: phenotype, estrous cycle, ovarian histology and fertility of female offspring. The format is in vivo, mouse. Here is the method: FIGS. 2A-2E-3. Prenatal AMH treatment disrupts estrous cyclicity, ovarian morphology and fertility in adult offspring. (FIG. 2A) Schematic of experimental design whereby pregnant dams were subjected to different treatments by intraperitoneal (i.p.) injections during the late gestational period (embryonic days (E) 16.5-E18.5). Pregnant dams were treated with i.p. injections of four different treatments, which are designated as the following: Control, PBS, 0.01M, pH 7.4 (n=14); Prenatal anti-Müillerian hormone-treated (PAMH), PBS containing human recombinant AMH (n=19); Prenatal AMH+Cetrorelix (PAMH+GnRH antag), PBS containing both human recombinant AMH and cetrorelix acetate (n=10); Cetrorelix-treated (GnRH antag), PBS containing cetrorelix acetate (n=4). (FIG. 2B) Quantitative analysis of ovarian cyclicity in adult (P60-P90) offspring mice (control, n=14; PAMH, n=19; PAMH+GnRH antag, n=10; GnRH antag, n=4). Vaginal cytology was assessed for 16 days. […] Bars from left to right in each group: Control, PAMH, PAMH+GnRH antag, GnRH antag. (FIGS. 2C-1, 2C-2, 2C-3) Representation of estrous cyclicity in one female mouse of each of the four treatments during 16 consecutive days (4-cycles). (FIGS. 2D-1, 2D-2, 2D-3) Quantitative analysis of corpora lutea, late antral follicles and atretic follicles in the ovaries of Control (n=7, age: P90) and PAMH mice (n=8, age: P90). Data are represented as mean±s.e.m (two-tailed Student's t-test; corpora lutea, t(13)=4.879, **P<0.001; late antral follicles, t(13)=4.637, **P<0.001; atretic follicles, t(13)=0.226, P=0.82). Data were combined from two independent experiments. In FIGS. 2D-1, 2D-2 and 2D-3: left bar: Control; right bar: PAMH.). (FIGS. 2E-1, 2E-2, 2E-3) Fertility tests of the adult offspring mice (P90). Bars from left to right in each FIGS. 2E-1, 2E-2 and 2E-3: Control, PAMH, PAMH+GnRH antag, GnRH antag Matings were performed for 90 days. Control females were paired with control males (n=7), PAMH females were paired with PAMH males (n=7), PAMH+GnRH antag females were paired with PAMH+GnRH antag males (n=6), and GnRH antag females were paired with GnRH antag males (n=4). […] Data are represented as mean±s.e.m. One-way ANOVA and Tukey's multiple comparison post hoc test: time to first litter, F(3,20)=14.73, ***P<0.0001; fertility index, F(3,20)=7.069, *P<0.05, **P<0.005; number of pups/litter, F(3,20)=30.71, ***P<0.0001.
FIGS. 8A-8D. Prenatal AMH treatment disrupts puberty onset and estrous cyclicity cyclicity but not body mass of the offspring. (FIGS. 8A, 8B, 8C, 8D) Parameters of pubertal onset and estrous cyclicity in female control (n=14), PAMH (n=17-19), PAMH+GnRH antag (n=10), and GnRH antag (n=4) animals. (FIG. 8A) Age of vaginal opening (VO) and (FIG. 8B) Age of first estrus were compared using a one-way ANOVA and Tukey's multiple comparison post hoc analyses, respectively: F (3, 43)=48.37, *** P<0.0001; F (3, 41)=112.6, *** P<0.0001. Bars from left to right in each FIGS. 8A, 8B: Control, PAMH, PAMH+GnRH antag, GnRH antag (FIG. 8C) Percentage (%) of completed estrous cycles over 16 days (4 cycles) was analyzed using a non-parametric Kruskal-Wallis test followed by a Dunn's multiple comparison post-hoc analysis: Kruskal-Wallis statistic=35.55, *P<0.05, **P<0.005, ***P<0.0001. Bars from left to right in each FIG. 8C: Control, PAMH, PAMH+GnRH antag, GnRH antag (FIG. 8D) Body mass (gr) was measured in female offspring at each post-natal age (P) until P60 and compared using a one-way ANOVA and Tukey's multiple comparison post hoc analyses for each age and treatment: P30, F (3, 43)=1.338, P=0.2747; P35, F (3, 43)=0.4268, P=0.7348; P40, F (3, 43)=0.4171, P=0.7416; P50, F (3, 27)=2.158, P=0.1162; P60, F (3, 27)=5.45, P=0.0046; * P<0.05, **, P<0.005. Asterisks represent significant differences (mean±s.e.m): *P<0.05, **P<0.005, ***, P<0.0001. Bars from left to right in FIG. 8D: Control, PAMH, PAMH+GnRH antag, GnRH antag. […]

[1] abbreviates: dams i.p. AMH 0.12 mg/Kg/d + cetrorelix acetate 0.5 mg/Kg E16.5-E18.5, female offspring.
Setting [2] is: dams i.p. 0.12 mg/Kg/d E16.5-E18.5, female offspring vs control.

For `CC(=O)N[C@H](Cc1ccc2ccccc2c1)C(=O)N[C@H](Cc1ccc(Cl)cc1)C(=O)N[C@H](Cc1cccnc1)C(=O)N[C@@H](CO)C(=O)N[C@@H](Cc1ccc(O)cc1)C(=O)N[C@H](CCCNC(N)=O)C(=O)N[C@@H](CC(C)C)C(=O)N[C@@H](CCCNC(=N)N)C(=O)N1CCC[C@H]1C(=O)N[C@H](C)C(N)=O` [Cetrorelix acetate, Ac-D-2Nal-D-Phe(4-Cl)-D-3Pal-Ser-Tyr-D-Cit-Leu-Arg-Pro-D-Ala-NH2] (Ac-[d2Nal][dPhe(4-Cl)][d3Pal]SY[dCit]LRP[dA]-NH2), the “estrous cyclicity and fertility” value (GnRH antagonist alone, dams i.p. 0.5 mg/Kg/d E16.5-E18.5, offspring) is listed as “no effect”. Further, under setting [1], the “longer ano-genital distance phenotype of PAMH offspring” value is “completely rescued”; the “oligo-anovulation and subfertility (ovulatory and fertility defects) of PAMH offspring” value was “totally prevented”. The “oligo-anovulation and subfertility (ovulatory and fertility defects) of PAMH offspring” value (dams i.p. AMH 0.12 mg/Kg/d + cetrorelix acetate 0.5 mg/Kg E16.5-E18.5, female offspring, listed as GnRH antagonist) was “prevented the appearance of the ovulatory and fertility defects”.

B1: proAMH: AMH proprotein (Origene Technologies, Cat # TP308397), injected prenatally 0.12 mg/Kg/d (protein, UniProt P03971 25-560, looked up)
pro-form: LRAEEPAVGTSGLIFREDLDWPPGSPQEPLCLVALGGDSNGSSSPLRVVGALSAYEQAFLGAVQRARWGPRDLATFGVCNTGDRQAALPSLRRLGAWLRDPGGQRLVVLHLEEVTWEPTPSLRFQEPPPGGAGPPELALLVLYPGPGPEVTVTRAGLPGAQSLCPSRDTRYLVLAVDRPAGAWRGSGLALTLQPRGEDSRLSTARLQALLFGDDHRCFTRMTPALLLLPRSEPAPLPAHGQLDTVPFPPPRPSAELEESPPSADPFLETLTRLVRALRVPPARASAPRLALDPDALAGFPQGLVNLSDPAALERLLDGEEPLLLLLRPTAATTGDPAPLHDPTSAPWATALARRVAAELQAAAAELRSLPGLPPATAPLLARLLALCPGGPGGLGDPLRALLLLKALQGLRVEWRGRDPRGPGRAQRSAGATAADGPCALRELSVDLRAERSVLIPETYQANNCQGVCGWPQSDRNPRYGNHVVLLLKMQVRGAALARPPCCVPTAYAGKLLISLSEERISAHHVPNMVATECGCR
modifications: pro-form
notes: AMH proprotein (Origene Technologies, Cat # TP308397), injected prenatally 0.12 mg/Kg/d
B1: the estrous cyclicity result (dams i.p. 0.12 mg/Kg/d E16.5-E18.5, adult female offspring vs control) was “disrupted estrous cyclicity”. The ano-genital distance entry (dams i.p. 0.12 mg/Kg/d E16.5-E18.5, female offspring P30-P60 vs control) is reported as “significantly longer ano-genital distance”. In addition, under setting [2], the “body weight of offspring” value was “no difference in body weight”, the “puberty onset (first estrus)” value is on record as “delayed puberty onset” and the vaginal opening result was “delayed vaginal opening”.

The record behind these values is patent US12208130B2, “Treatment of women affected with polycystic ovary syndrome” (INSTITUT NATIONAL DE LA SANTE ET DE LA RECHERCHE MEDICALE …, priority 2017, dated 2025).
